Measurements: paper PMC13572408

Target: His6-AstR (Acinetobacter baumannii ATCC 17978VU)
Assay: SEC; purified His6-AstR; size estimated with standard curves; Size Exclusion Buffer (50 mM Tris, 300 mM NaCl, pH 8)

Substance: His6-AstR (natural protein)
- stoichiometry N: 2
